In FireProtDB (doi:10.1002/pro.398) one finds Tm data, which are given here for one protein.

The conditions of this series: Gallus gallus, Thermal, CD, whole UniProt chain shown.

B1: Ovalbumin wild type, P01012 (protein)
chain: MGSIGAASMEFCFDVFKELKVHHANENIFYCPIAIMSALAMVYLGAKDSTRTQINKVVRFDKLPGFGDSIEAQCGTSVNVHSSLRDILNQITKPNDVYSFSLASRLYAEERYPILPEYLQCVKELYRGGLEPINFQTAADQARELINSWVESQTNGIIRNVLQPSSVDSQTAMVLVNAIVFKGLWEKAFKDEDTQAMPFRVTEQESKPVQMMYQIGLFRVASMASEKMKILELPFASGTMSMLVLLPDEVSGLEQLESIINFEKLTEWTSSNVMEERKIKVYLPRMKMEEKYNLTSVLMAMGITDVFSSSANLSGISSAESLKISQAVHAAHAEINEAGREVVGSAEAGVDAASVSEEFRADHPFLFCIKHIATNAVLFFGRCVSP
For the protein B1, the Tm runs as follows: (pH 7, Phosphate 10 mM) 69.8 °C; (pH 10, Glycine-NaOH 0.1 M) 78.9 °C.
